The source of these data is patent US12065466B2, “Methods and compositions for protein sequencing” (Quantum-Si Incorporated, priority 2020, dated 2024).

B1: PS426: ClpS protein, SEQ ID NO: 49 (protein)
chain: MSIIEKTQENVAILEKVSINHEIILYNDDVNTFDHVIETLIRVCNHEELQAEQCAILVHYTGKCAVKTGSFDELQPLCLALLDAGLSAEIT
B2: PS422: ClpS protein, SEQ ID NO: 45 (protein)
chain: MTQIKPQTIPDTDVISQTQSDWQMPDLYAVIMHNDDYTTMDFVVFLLNAVFDKPIEQAYQLMMQIHQTGRAVVAILPYEIAEMKVDEATSLAEQEQFPLFISIEQA
B3: PS549: PS372-homologous ClpS protein, SEQ ID NO: 63 (protein, listed as Planctomycetes bacterium)
chain: MSESITTLPKKSRRLKEEEEQKTKRQPPYNVILLNDDDHTFEYVIFMLQKLFGHPPERGMQMAKEVHTTGRVIVMTTALELAELKRDQIHAFGPDPLIDRCKGSMSATIEPAPI
B4: PS434: ClpS protein, SEQ ID NO: 57 (protein)
chain: MSRLPWKQEAKFAATVIIDFPDATLEAPTIEKKEATEQQIEMPWNVVVHNDPVNLMSYVTMVFQRVFGYPRERAEKHMLEVHHSGRSILWSGLRERAELYVQQLHGYLLLATIEKTV
B5: PS425: ClpS protein, SEQ ID NO: 48 (protein)
chain: MTHYFSNILRDQESPKINPKELEQIDVLEEKEHQIILYNDDVNTFEHVIDCLVKICEHNYLQAEQCAYIVHHSGKCSVKTGSLDELVPKCNALLEEGLSAEVV
B6: PS419: ClpS protein, SEQ ID NO: 42 (protein)
chain: MEKEQSLCKEKTHVELSEPKHYKVVFHNDDFTTMDFVVKVLQLVFFKSQLQAEDLTMKIHLEGSATAGIYSYDIAQSKAQKTTQMAREEGFPLRLTVEPEDN
B7: PS435: ClpS protein, SEQ ID NO: 58 (protein)
chain: MTLSVALGPDTQESTQTGTAVSTDTLTAPDIPWNLVIWNDPVNLMSYVSYVFQSYFGYSETKANKLMMEVHKKGRSIVAHGSKEQVEQHAVAMHGYGLWATVEKATGGNSGGGKSGGPGKGKGKRG
B8: PS433: ClpS protein, SEQ ID NO: 56 (protein)
chain: MMSSLKECSIQALPSLDEKTKTEEDLSVPWKVIVLNDPVNLMSYVVMVFRKVFGYNENKATKHMMEVHQLGKSVLWTGQREEAECYAYQLQRWRLQTILEKDD
B9: PS424: ClpS protein, SEQ ID NO: 47 (protein)
chain: MSVETIEKRSTTRKLAPQYRVLLHNDDYNSMEYVVQVLMTSVPSITQPQAVNIMMEAHNSGLALVITCAQEHAEFYCETLKGHGLSSTIEPD
B10: PS548: PS372-homologous ClpS protein, SEQ ID NO: 62 (protein, listed as Gemmataceae bacterium)
chain: MSDTITLPEEKTDVRTKRQPPYHVILLNDDDHTYQYVIYMLQTLFGHPPETGFKMAQEVDKTGRVIVDTTSLERAELKRDQIHAFGPDPYIERCKGSMSAMIEPSE
B11: PS420: ClpS protein, SEQ ID NO: 43 (protein)
chain: MSDYSNQISQAGSGVAEDASITLPPERKVVFYNDDFTTMEFVVDVLVSIFNKSHSEAEELMQTVHQEGSSVVGVYTYDIAVSRTNLTIQAARKNGFPLRVEVE
B12: PS546: PS372-homologous ClpS protein, SEQ ID NO: 60 (protein, listed as Planctomycetales bacterium)
chain: MSDTITLPGRPEVERDERTRRQPPYNVILHNDDDHTFEYVIVMLNQLFGYPPEKGYEMAKEVHLNGRVIVLTTSKEHAELKRDQIHAFGPDPFSSKDCKGSMSASIEPAY
B13: PS547: PS372-homologous ClpS protein, SEQ ID NO: 61 (protein, listed as Gemmataceae bacterium)
chain: MGFPTDFRQSIEISTPLGSQQPRFSNASSEPALADPVLVINPRIQPRYHVILLNDDDHTYRYVIEMMLIVFGHPPEKGFLIAKEVDKAGRAICLTTSLEHAEFKQEQVHAYGADPYFGPKCKGSMTAVLEPAE
B14: PS371: ClpS protein, SEQ ID NO: 4 (protein)
chain: MATETIERPRTRDPGSGLGGHWLVIVLNDDHNTFDHVAKTLARVIPGVTVDDGYRFADQIHQRGQAIVWRGPKEPAEHYWEQLQDAGLSMAPLERH
B15: PS545: PS372-homologous ClpS protein, SEQ ID NO: 59 (protein, listed as Planctomycetales bacterium)
chain: MSEPMTLPAIPQPRLKERTQRQPPYNVILLNDDDHSYEYVIAMLQVLFGYPREKGYQMAKEVDSTGRVILLTTTREHAELKQEQIHAFGPDPLMARCQGSMTAVIEPAV
B16: PS423: ClpS protein, SEQ ID NO: 46 (protein)
chain: MAPTPAGAAVLDKQQQRRHKHASRYRVLLHNDPVNTMEYVVESLRQVVPQLSEQDAIAVMVEAHNTGVGLVIVCDIEPAEFYCEQLKTKGLTSSIEPED
B17: PS430: ClpS protein, SEQ ID NO: 53 (protein)
chain: MQPFEETYTDVLDEVVDTDVHNLVVFNDDVNTFDHVIETLIDVCKHTPEQAEQCTLLIHYKGKCSVKNGSWEELVPMRNEICRRGISAEVLK
B18: PS421: ClpS protein, SEQ ID NO: 44 (protein)
chain: MTTPNKRPEFEPEIGLEDEVGEPRKYKVLLHNDDYTTMDFVVQVLIEVFRKSETEATHIMLTIHEKGVGTCGIYPAEVAETKINEVHTRARREGFPLRASMEEV
B19: PS427: ClpS protein, SEQ ID NO: 50 (protein)
chain: MSTKEKVKERVREKEAISFNNEIIVYNDDVNTFDHVIETLIRVCNHTPEQAEQCSLIVHYNGKCTVKTGSMDKLKPQCTQLLEAGLSAEIV
B20: PS432: ClpS protein, SEQ ID NO: 55 (protein)
chain: MIGVEARTSSAPELAIETEIRLAGLWHVIVINDPVNLMSYVVMVLRKIFGFDDTKARKHMLEVHENGRSIVWSGEREPAEAYANTLHQWHLSAVLERDETD

The test system of this assay is amino acid at a terminal position of a polypeptide. Description: Amino acid binding preference of recognition proteins (Tables 1 and 2). The conditions noted are these: Table 1, ClpS proteins; amino acid identity at a terminal position of a polypeptide; inferred from literature and/or demonstrated by the inventors. The source says: It should be appreciated that these sequences and other examples described herein are meant to be non-limiting, and recognition molecules in accordance with the application can include any homologs, variants thereof, or fragments thereof minimally containing domains or subdomains responsible for peptide recognition.
As to B1, the “Binding Pref.” value is “F, Y, W, L”. For the molecule B2, the “Binding Pref.” value is reported as “F, Y, W, L”. Regarding B3, the “Binding Pref.” value is given as “I, L, V”.

For B4, the “Binding Pref.” value is recorded as “F, Y, W, L”. The value for B5 was “F, Y, W, L”; that for B6 was “F, Y, W, L”. On to B7, for which the “Binding Pref.” value is “F, Y, W, L”. For B8, the “Binding Pref.” value is on record as “F, Y, W, L”. In the case of B9, the “Binding Pref.” value is “F, Y, W”. Take B10: the “Binding Pref.” value is listed as “I, L, V”. Consider B11, for which the “Binding Pref.” value is reported as “F, Y, W, L”. Take B12: the “Binding Pref.” value was “I, L, V”. Take B13: the “Binding Pref.” value is “I, L, V”.

B14: the “Binding Pref.” value is listed as “F, Y, W, L”. Under B15 stands “I, L, V”.

For the molecule B16, the “Binding Pref.” value was “F, Y, W”.

Consider B17, for which the “Binding Pref.” value is recorded as “F, Y, W, L”. Turning to B18, the “Binding Pref.” value is recorded as “F, Y, W, L”. In the case of B19, the “Binding Pref.” value was “F, W”. Consider B20, for which the “Binding Pref.” value was “F, W”.
